From US12679878B2, “CRF2 receptor agonists and their use in therapy” (SANOFI, priority 2020, dated 2026)
Starred links: 1 amine or outer side, 2 acyl side, 3 side chain; linkers in the order of their positions; H or OH if unused. Non-standard residues stand in square brackets, D forms with d. Groups on a side chain read outwards from the residue. No end group written: not given here. *: point of attachment. C18 diacid = O=C(O)CCCCCCCCCCCCCCCCC(=O)*; γGlu = O=C(O)[C@H](CCC(=O)[*:2])N[*:1]; AEEA = NCCOCCOCC(=O)O; Aib = CC(C)(N)C(=O)O

T1: anti-target CRF1R receptor (UniProt P34998 24-415, limits assumed)
T1 sequence (looked up): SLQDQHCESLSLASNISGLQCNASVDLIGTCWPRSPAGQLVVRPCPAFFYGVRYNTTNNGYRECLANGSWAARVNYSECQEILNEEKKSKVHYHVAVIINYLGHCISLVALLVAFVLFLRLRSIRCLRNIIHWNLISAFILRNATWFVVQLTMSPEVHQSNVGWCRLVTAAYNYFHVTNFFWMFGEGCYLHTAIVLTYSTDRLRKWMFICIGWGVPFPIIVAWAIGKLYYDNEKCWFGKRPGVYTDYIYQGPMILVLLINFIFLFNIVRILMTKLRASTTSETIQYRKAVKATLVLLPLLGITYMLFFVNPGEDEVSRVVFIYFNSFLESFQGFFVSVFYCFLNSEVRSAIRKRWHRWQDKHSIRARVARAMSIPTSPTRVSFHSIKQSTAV

B1: peptide of SEQ ID NO: 77 (peptide)
peptide: IVLSLDVPIKLK([AEEA-AEEA-γGlu-C18 diacid])QILLKQERQKKQRQKAETNKQILAQV-NH2
modifications: N-terminus assumed
SMILES: CC[C@H](C)[C@H](N)C(=O)N[C@H](C(=O)N[C@@H](CC(C)C)C(=O)N[C@@H](CO)C(=O)N[C@@H](CC(C)C)C(=O)N[C@@H](CC(=O)O)C(=O)N[C@H](C(=O)N1CCC[C@H]1C(=O)N[C@H](C(=O)N[C@@H](CCCCN)C(=O)N[C@@H](CC(C)C)C(=O)N[C@@H](CCCCNC(=O)COCCOCCNC(=O)COCCOCCNC(=O)CC[C@H](NC(=O)CCCCCCCCCCCCCCCCC(=O)O)C(=O)O)C(=O)N[C@@H](CCC(N)=O)C(=O)N[C@H](C(=O)N[C@@H](CC(C)C)C(=O)N[C@@H](CC(C)C)C(=O)N[C@@H](CCCCN)C(=O)N[C@@H](CCC(N)=O)C(=O)N[C@@H](CCC(=O)O)C(=O)N[C@@H](CCCNC(=N)N)C(=O)N[C@@H](CCC(N)=O)C(=O)N[C@@H](CCCCN)C(=O)N[C@@H](CCCCN)C(=O)N[C@@H](CCC(N)=O)C(=O)N[C@@H](CCCNC(=N)N)C(=O)N[C@@H](CCC(N)=O)C(=O)N[C@@H](CCCCN)C(=O)N[C@@H](C)C(=O)N[C@@H](CCC(=O)O)C(=O)N[C@H](C(=O)N[C@@H](CC(N)=O)C(=O)N[C@@H](CCCCN)C(=O)N[C@@H](CCC(N)=O)C(=O)N[C@H](C(=O)N[C@@H](CC(C)C)C(=O)N[C@@H](C)C(=O)N[C@@H](CCC(N)=O)C(=O)N[C@H](C(N)=O)C(C)C)[C@@H](C)CC)[C@@H](C)O)[C@@H](C)CC)[C@@H](C)CC)C(C)C)C(C)C
B2: peptide of SEQ ID NO: 72 (peptide)
peptide: IVLSLDVPIKLK([AEEA-AEEA-γGlu-C18 diacid])QILLEQERQKKQRQQAETN[Aib]QILAQV-NH2
modifications: N-terminus assumed
SMILES: CC[C@H](C)[C@H](N)C(=O)N[C@H](C(=O)N[C@@H](CC(C)C)C(=O)N[C@@H](CO)C(=O)N[C@@H](CC(C)C)C(=O)N[C@@H](CC(=O)O)C(=O)N[C@H](C(=O)N1CCC[C@H]1C(=O)N[C@H](C(=O)N[C@@H](CCCCN)C(=O)N[C@@H](CC(C)C)C(=O)N[C@@H](CCCCNC(=O)COCCOCCNC(=O)COCCOCCNC(=O)CC[C@H](NC(=O)CCCCCCCCCCCCCCCCC(=O)O)C(=O)O)C(=O)N[C@@H](CCC(N)=O)C(=O)N[C@H](C(=O)N[C@@H](CC(C)C)C(=O)N[C@@H](CC(C)C)C(=O)N[C@@H](CCC(=O)O)C(=O)N[C@@H](CCC(N)=O)C(=O)N[C@@H](CCC(=O)O)C(=O)N[C@@H](CCCNC(=N)N)C(=O)N[C@@H](CCC(N)=O)C(=O)N[C@@H](CCCCN)C(=O)N[C@@H](CCCCN)C(=O)N[C@@H](CCC(N)=O)C(=O)N[C@@H](CCCNC(=N)N)C(=O)N[C@@H](CCC(N)=O)C(=O)N[C@@H](CCC(N)=O)C(=O)N[C@@H](C)C(=O)N[C@@H](CCC(=O)O)C(=O)N[C@H](C(=O)N[C@@H](CC(N)=O)C(=O)NC(C)(C)C(=O)N[C@@H](CCC(N)=O)C(=O)N[C@H](C(=O)N[C@@H](CC(C)C)C(=O)N[C@@H](C)C(=O)N[C@@H](CCC(N)=O)C(=O)N[C@H](C(N)=O)C(C)C)[C@@H](C)CC)[C@@H](C)O)[C@@H](C)CC)[C@@H](C)CC)C(C)C)C(C)C
B3: peptide of SEQ ID NO: 69 (peptide)
peptide: IVLSLDVPIKLK([AEEA-AEEA-γGlu-C18 diacid])K[Aib]LLEQERQKKQREQAETNKQILAQV-NH2
modifications: N-terminus assumed
SMILES: CC[C@H](C)[C@H](N)C(=O)N[C@H](C(=O)N[C@@H](CC(C)C)C(=O)N[C@@H](CO)C(=O)N[C@@H](CC(C)C)C(=O)N[C@@H](CC(=O)O)C(=O)N[C@H](C(=O)N1CCC[C@H]1C(=O)N[C@H](C(=O)N[C@@H](CCCCN)C(=O)N[C@@H](CC(C)C)C(=O)N[C@@H](CCCCNC(=O)COCCOCCNC(=O)COCCOCCNC(=O)CC[C@H](NC(=O)CCCCCCCCCCCCCCCCC(=O)O)C(=O)O)C(=O)N[C@@H](CCCCN)C(=O)NC(C)(C)C(=O)N[C@@H](CC(C)C)C(=O)N[C@@H](CC(C)C)C(=O)N[C@@H](CCC(=O)O)C(=O)N[C@@H](CCC(N)=O)C(=O)N[C@@H](CCC(=O)O)C(=O)N[C@@H](CCCNC(=N)N)C(=O)N[C@@H](CCC(N)=O)C(=O)N[C@@H](CCCCN)C(=O)N[C@@H](CCCCN)C(=O)N[C@@H](CCC(N)=O)C(=O)N[C@@H](CCCNC(=N)N)C(=O)N[C@@H](CCC(=O)O)C(=O)N[C@@H](CCC(N)=O)C(=O)N[C@@H](C)C(=O)N[C@@H](CCC(=O)O)C(=O)N[C@H](C(=O)N[C@@H](CC(N)=O)C(=O)N[C@@H](CCCCN)C(=O)N[C@@H](CCC(N)=O)C(=O)N[C@H](C(=O)N[C@@H](CC(C)C)C(=O)N[C@@H](C)C(=O)N[C@@H](CCC(N)=O)C(=O)N[C@H](C(N)=O)C(C)C)[C@@H](C)CC)[C@@H](C)O)[C@@H](C)CC)C(C)C)C(C)C
B4: peptide of SEQ ID NO: 75 (peptide)
peptide: IVLSLDVPIKLK([AEEA-AEEA-γGlu-C18 diacid])QILLKQERQKKQRQQAETN[Aib]QILAQV-NH2
modifications: N-terminus assumed
SMILES: CC[C@H](C)[C@H](N)C(=O)N[C@H](C(=O)N[C@@H](CC(C)C)C(=O)N[C@@H](CO)C(=O)N[C@@H](CC(C)C)C(=O)N[C@@H](CC(=O)O)C(=O)N[C@H](C(=O)N1CCC[C@H]1C(=O)N[C@H](C(=O)N[C@@H](CCCCN)C(=O)N[C@@H](CC(C)C)C(=O)N[C@@H](CCCCNC(=O)COCCOCCNC(=O)COCCOCCNC(=O)CC[C@H](NC(=O)CCCCCCCCCCCCCCCCC(=O)O)C(=O)O)C(=O)N[C@@H](CCC(N)=O)C(=O)N[C@H](C(=O)N[C@@H](CC(C)C)C(=O)N[C@@H](CC(C)C)C(=O)N[C@@H](CCCCN)C(=O)N[C@@H](CCC(N)=O)C(=O)N[C@@H](CCC(=O)O)C(=O)N[C@@H](CCCNC(=N)N)C(=O)N[C@@H](CCC(N)=O)C(=O)N[C@@H](CCCCN)C(=O)N[C@@H](CCCCN)C(=O)N[C@@H](CCC(N)=O)C(=O)N[C@@H](CCCNC(=N)N)C(=O)N[C@@H](CCC(N)=O)C(=O)N[C@@H](CCC(N)=O)C(=O)N[C@@H](C)C(=O)N[C@@H](CCC(=O)O)C(=O)N[C@H](C(=O)N[C@@H](CC(N)=O)C(=O)NC(C)(C)C(=O)N[C@@H](CCC(N)=O)C(=O)N[C@H](C(=O)N[C@@H](CC(C)C)C(=O)N[C@@H](C)C(=O)N[C@@H](CCC(N)=O)C(=O)N[C@H](C(N)=O)C(C)C)[C@@H](C)CC)[C@@H](C)O)[C@@H](C)CC)[C@@H](C)CC)C(C)C)C(C)C
B5: peptide of SEQ ID NO: 70 (peptide)
peptide: IVLSLDVPIKLK([AEEA-AEEA-γGlu-C18 diacid])QILLEQERQKKQREQAETN[Aib]QILAQV-NH2
modifications: N-terminus assumed
SMILES: CC[C@H](C)[C@H](N)C(=O)N[C@H](C(=O)N[C@@H](CC(C)C)C(=O)N[C@@H](CO)C(=O)N[C@@H](CC(C)C)C(=O)N[C@@H](CC(=O)O)C(=O)N[C@H](C(=O)N1CCC[C@H]1C(=O)N[C@H](C(=O)N[C@@H](CCCCN)C(=O)N[C@@H](CC(C)C)C(=O)N[C@@H](CCCCNC(=O)COCCOCCNC(=O)COCCOCCNC(=O)CC[C@H](NC(=O)CCCCCCCCCCCCCCCCC(=O)O)C(=O)O)C(=O)N[C@@H](CCC(N)=O)C(=O)N[C@H](C(=O)N[C@@H](CC(C)C)C(=O)N[C@@H](CC(C)C)C(=O)N[C@@H](CCC(=O)O)C(=O)N[C@@H](CCC(N)=O)C(=O)N[C@@H](CCC(=O)O)C(=O)N[C@@H](CCCNC(=N)N)C(=O)N[C@@H](CCC(N)=O)C(=O)N[C@@H](CCCCN)C(=O)N[C@@H](CCCCN)C(=O)N[C@@H](CCC(N)=O)C(=O)N[C@@H](CCCNC(=N)N)C(=O)N[C@@H](CCC(=O)O)C(=O)N[C@@H](CCC(N)=O)C(=O)N[C@@H](C)C(=O)N[C@@H](CCC(=O)O)C(=O)N[C@H](C(=O)N[C@@H](CC(N)=O)C(=O)NC(C)(C)C(=O)N[C@@H](CCC(N)=O)C(=O)N[C@H](C(=O)N[C@@H](CC(C)C)C(=O)N[C@@H](C)C(=O)N[C@@H](CCC(N)=O)C(=O)N[C@H](C(N)=O)C(C)C)[C@@H](C)CC)[C@@H](C)O)[C@@H](C)CC)[C@@H](C)CC)C(C)C)C(C)C

Tests used:
[1] = target: rat CRF2R α receptor (rat, UniProt P47866 20-411); experiment: cell-based or functional assay
Sequence of rat CRF2R α receptor (P47866 20-411): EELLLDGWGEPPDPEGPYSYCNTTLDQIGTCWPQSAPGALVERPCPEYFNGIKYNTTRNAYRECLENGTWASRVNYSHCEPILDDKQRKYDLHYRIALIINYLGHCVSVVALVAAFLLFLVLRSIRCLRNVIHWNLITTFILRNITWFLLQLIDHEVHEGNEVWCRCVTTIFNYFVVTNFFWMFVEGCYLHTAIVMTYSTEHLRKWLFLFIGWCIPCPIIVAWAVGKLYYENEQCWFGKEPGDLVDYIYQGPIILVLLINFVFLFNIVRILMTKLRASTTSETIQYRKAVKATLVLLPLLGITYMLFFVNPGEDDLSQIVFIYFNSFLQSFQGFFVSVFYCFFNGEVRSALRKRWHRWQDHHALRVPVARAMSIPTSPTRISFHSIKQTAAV

[2] = target: T1, anti-target CRF1R receptor; experiment: cell-based or functional assay

Binder	EC50 [nM], 0% HSA (cAMP, A7R5 cells) [1] [nM]	EC50[nM] 0% HSA (cAMP, CRF1R-overexpression CHO cells) [2] [nM]	Emax (%) (cAMP, CRF1R-overexpression CHO cells) [2]
B1	3.26	> 1000	1.56
B2	4.31	> 1000	2.58
B3	7.33	> 1000	0.02
B4	1.71	> 1000	2.7
B5	8.72	> 1000	3.03
